Measured values published in the supplement of paper PMC10567573.

B1: SMG5 (parent)
chain: FVSIAQSEQESLLQQAQAQFRMAQ

Variants of: B1
Experiment: protein stability index of a GFP-peptide fusion (GPS, HEK-293T) (PSI 1-6); higher = more stable
Conditions: c terminus: a fixed tail appended
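Also: lentivirally expressed fusions sorted by FACS into six bins by GFP to DsRed ratio, PSI derived from sequencing read proportions per bin multiplied by bin number.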

With S3N as the variant, how does the protein stability index read?
Its protein stability index is 1.83.

With S3P as the variant, how does the protein stability index read?
Its protein stability index is 2.22.

Which protein stability index does the source give for S3Q here?
Its protein stability index is 2.62.

Which protein stability index does the source give for S3R here?
The protein stability index was 2.31.

For S3T, which protein stability index is on record?
The protein stability index was 2.25.

Which protein stability index does the source give for S3V here?
The protein stability index was 1.77.

For S3W, which protein stability index is on record?
The protein stability index was 2.89.

With S3Y as the variant, how does the protein stability index read?
Its protein stability index is 1.58.

Which protein stability index does the source give for I4A here?
The protein stability index was 2.38.

With I4C as the variant, how does the protein stability index read?
Its protein stability index is 1.83.

With I4D as the variant, how does the protein stability index read?
The protein stability index was 3.09.

For I4E, which protein stability index is on record?
Its protein stability index is 2.91.

With I4F as the variant, how does the protein stability index read?
Its protein stability index is 2.2.

For I4G, which protein stability index is on record?
Its protein stability index is 2.42.

With I4H as the variant, how does the protein stability index read?
Its protein stability index is 1.9.

With I4K as the variant, how does the protein stability index read?
The protein stability index was 2.39.

For I4L, which protein stability index is on record?
The protein stability index was 1.86.

With I4M as the variant, how does the protein stability index read?
Its protein stability index is 2.61.

With I4N as the variant, how does the protein stability index read?
The protein stability index was 2.49.

Which protein stability index does the source give for I4P here?
The protein stability index was 3.08.

For I4Q, which protein stability index is on record?
Its protein stability index is 3.01.

Which protein stability index does the source give for I4R here?
The protein stability index was 2.06.

Which protein stability index does the source give for I4S here?
Its protein stability index is 1.87.

With I4T as the variant, how does the protein stability index read?
The protein stability index was 2.78.

With I4V as the variant, how does the protein stability index read?
Its protein stability index is 2.29.

With I4W as the variant, how does the protein stability index read?
The protein stability index was 2.8.

For I4Y, which protein stability index is on record?
Its protein stability index is 2.12.

Which protein stability index does the source give for A5C here?
The protein stability index was 1.82.

For A5D, which protein stability index is on record?
The protein stability index was 3.41.

For A5E, which protein stability index is on record?
The protein stability index was 2.64.

Which protein stability index does the source give for A5F here?
The protein stability index was 2.56.

Which protein stability index does the source give for A5G here?
The protein stability index was 1.66.

For A5H, which protein stability index is on record?
The protein stability index was 2.21.

For A5I, which protein stability index is on record?
Its protein stability index is 1.78.

For A5K, which protein stability index is on record?
The protein stability index was 2.3.

For A5L, which protein stability index is on record?
Its protein stability index is 2.23.

Which protein stability index does the source give for A5M here?
Its protein stability index is 2.58.

Which protein stability index does the source give for A5N here?
The protein stability index was 1.86.

With A5P as the variant, how does the protein stability index read?
The protein stability index was 1.88.

Which protein stability index does the source give for A5Q here?
The protein stability index was 2.11.

For A5R, which protein stability index is on record?
Its protein stability index is 2.57.

With A5S as the variant, how does the protein stability index read?
The protein stability index was 1.76.

With A5T as the variant, how does the protein stability index read?
The protein stability index was 1.54.

Which protein stability index does the source give for A5V here?
Its protein stability index is 1.42.

For A5Y, which protein stability index is on record?
Its protein stability index is 1.91.

For Q6A, which protein stability index is on record?
The protein stability index was 1.9.

Which protein stability index does the source give for Q6C here?
Its protein stability index is 1.44.

With Q6D as the variant, how does the protein stability index read?
Its protein stability index is 2.75.

For Q6E, which protein stability index is on record?
The protein stability index was 2.93.

With Q6F as the variant, how does the protein stability index read?
Its protein stability index is 2.15.

Which protein stability index does the source give for Q6G here?
Its protein stability index is 1.85.

With Q6H as the variant, how does the protein stability index read?
Its protein stability index is 1.92.

Which protein stability index does the source give for Q6I here?
The protein stability index was 2.02.

For Q6K, which protein stability index is on record?
The protein stability index was 2.26.

With Q6L as the variant, how does the protein stability index read?
The protein stability index was 1.79.

For Q6M, which protein stability index is on record?
Its protein stability index is 2.19.

Which protein stability index does the source give for Q6N here?
Its protein stability index is 1.97.

Which protein stability index does the source give for Q6P here?
Its protein stability index is 2.35.

For Q6R, which protein stability index is on record?
The protein stability index was 2.33.

With Q6S as the variant, how does the protein stability index read?
Its protein stability index is 2.25.

For Q6T, which protein stability index is on record?
The protein stability index was 1.84.

Which protein stability index does the source give for Q6V here?
The protein stability index was 1.53.

With Q6Y as the variant, how does the protein stability index read?
Its protein stability index is 2.32.

Which protein stability index does the source give for S7A here?
The protein stability index was 2.38.

Which protein stability index does the source give for S7C here?
The protein stability index was 1.63.

Which protein stability index does the source give for S7D here?
The protein stability index was 2.33.

For S7E, which protein stability index is on record?
Its protein stability index is 2.85.

With S7F as the variant, how does the protein stability index read?
The protein stability index was 2.22.

For S7G, which protein stability index is on record?
Its protein stability index is 2.61.

For S7H, which protein stability index is on record?
Its protein stability index is 2.77.

With S7I as the variant, how does the protein stability index read?
The protein stability index was 2.56.

Which protein stability index does the source give for S7K here?
Its protein stability index is 1.98.

For S7L, which protein stability index is on record?
Its protein stability index is 1.77.

For S7M, which protein stability index is on record?
Its protein stability index is 1.65.

With S7N as the variant, how does the protein stability index read?
Its protein stability index is 2.27.

With S7P as the variant, how does the protein stability index read?
The protein stability index was 2.

With S7Q as the variant, how does the protein stability index read?
Its protein stability index is 2.5.

Which protein stability index does the source give for S7R here?
The protein stability index was 2.79.

Which protein stability index does the source give for S7T here?
Its protein stability index is 2.36.

With S7W as the variant, how does the protein stability index read?
Its protein stability index is 3.26.

Which protein stability index does the source give for S7Y here?
Its protein stability index is 1.57.

For E8A, which protein stability index is on record?
Its protein stability index is 2.2.

Which protein stability index does the source give for E8C here?
Its protein stability index is 2.04.

For E8D, which protein stability index is on record?
Its protein stability index is 2.39.

With E8F as the variant, how does the protein stability index read?
Its protein stability index is 3.04.

For E8G, which protein stability index is on record?
Its protein stability index is 1.86.

For E8H, which protein stability index is on record?
The protein stability index was 2.02.

Which protein stability index does the source give for E8I here?
Its protein stability index is 1.9.

Which protein stability index does the source give for E8K here?
The protein stability index was 2.07.

For E8L, which protein stability index is on record?
The protein stability index was 2.19.

For E8M, which protein stability index is on record?
Its protein stability index is 1.57.

Which protein stability index does the source give for E8N here?
The protein stability index was 1.92.

With E8P as the variant, how does the protein stability index read?
Its protein stability index is 1.62.

Which protein stability index does the source give for E8Q here?
The protein stability index was 2.44.

With E8R as the variant, how does the protein stability index read?
The protein stability index was 1.42.

Which protein stability index does the source give for E8S here?
The protein stability index was 1.82.

With E8T as the variant, how does the protein stability index read?
The protein stability index was 1.84.

For E8V, which protein stability index is on record?
The protein stability index was 1.39.

For E8Y, which protein stability index is on record?
The protein stability index was 1.4.

For Q9A, which protein stability index is on record?
Its protein stability index is 1.56.

With Q9C as the variant, how does the protein stability index read?
The protein stability index was 3.07.

For Q9D, which protein stability index is on record?
Its protein stability index is 2.15.

For Q9E, which protein stability index is on record?
Its protein stability index is 2.25.

With Q9F as the variant, how does the protein stability index read?
Its protein stability index is 2.32.

With Q9G as the variant, how does the protein stability index read?
Its protein stability index is 1.95.

With Q9H as the variant, how does the protein stability index read?
The protein stability index was 2.2.

For Q9I, which protein stability index is on record?
Its protein stability index is 1.67.

For Q9K, which protein stability index is on record?
Its protein stability index is 1.73.

Which protein stability index does the source give for Q9L here?
Its protein stability index is 3.25.

With Q9M as the variant, how does the protein stability index read?
Its protein stability index is 2.02.

Which protein stability index does the source give for Q9N here?
Its protein stability index is 2.08.

With Q9P as the variant, how does the protein stability index read?
Its protein stability index is 1.63.

For Q9R, which protein stability index is on record?
Its protein stability index is 1.85.

With Q9S as the variant, how does the protein stability index read?
Its protein stability index is 2.02.

Which protein stability index does the source give for Q9T here?
Its protein stability index is 2.9.

Which protein stability index does the source give for Q9V here?
The protein stability index was 1.91.

For Q9W, which protein stability index is on record?
The protein stability index was 1.67.

With Q9Y as the variant, how does the protein stability index read?
Its protein stability index is 1.21.

With E10A as the variant, how does the protein stability index read?
Its protein stability index is 1.89.

Which protein stability index does the source give for E10C here?
Its protein stability index is 2.07.

With E10D as the variant, how does the protein stability index read?
The protein stability index was 2.19.

Which protein stability index does the source give for E10F here?
Its protein stability index is 2.2.

With E10G as the variant, how does the protein stability index read?
Its protein stability index is 1.6.

With E10H as the variant, how does the protein stability index read?
Its protein stability index is 1.95.

Which protein stability index does the source give for E10I here?
Its protein stability index is 1.73.

With E10K as the variant, how does the protein stability index read?
The protein stability index was 1.87.

For E10L, which protein stability index is on record?
Its protein stability index is 2.14.

With E10M as the variant, how does the protein stability index read?
The protein stability index was 1.43.

Which protein stability index does the source give for E10N here?
The protein stability index was 2.03.

With E10P as the variant, how does the protein stability index read?
The protein stability index was 1.96.

For E10Q, which protein stability index is on record?
Its protein stability index is 2.54.

With E10R as the variant, how does the protein stability index read?
Its protein stability index is 2.2.

For E10S, which protein stability index is on record?
The protein stability index was 1.61.

With E10T as the variant, how does the protein stability index read?
The protein stability index was 1.52.

With E10V as the variant, how does the protein stability index read?
Its protein stability index is 2.85.

Which protein stability index does the source give for E10W here?
The protein stability index was 2.89.

Which protein stability index does the source give for E10Y here?
The protein stability index was 1.89.

For S11A, which protein stability index is on record?
The protein stability index was 2.4.

Which protein stability index does the source give for S11C here?
Its protein stability index is 2.56.

Which protein stability index does the source give for S11D here?
The protein stability index was 2.46.

With S11E as the variant, how does the protein stability index read?
Its protein stability index is 2.56.

With S11F as the variant, how does the protein stability index read?
Its protein stability index is 1.56.

For S11G, which protein stability index is on record?
Its protein stability index is 1.2.

With S11H as the variant, how does the protein stability index read?
Its protein stability index is 2.04.

With S11I as the variant, how does the protein stability index read?
Its protein stability index is 1.69.

With S11K as the variant, how does the protein stability index read?
The protein stability index was 2.

For S11L, which protein stability index is on record?
Its protein stability index is 1.99.

With S11M as the variant, how does the protein stability index read?
Its protein stability index is 1.97.

With S11N as the variant, how does the protein stability index read?
Its protein stability index is 2.17.

With S11P as the variant, how does the protein stability index read?
The protein stability index was 2.6.

With S11Q as the variant, how does the protein stability index read?
The protein stability index was 2.23.

Which protein stability index does the source give for S11R here?
The protein stability index was 2.37.

Which protein stability index does the source give for S11T here?
The protein stability index was 2.63.

With S11V as the variant, how does the protein stability index read?
Its protein stability index is 1.59.

For S11W, which protein stability index is on record?
The protein stability index was 1.79.

With S11Y as the variant, how does the protein stability index read?
Its protein stability index is 2.04.

For L12A, which protein stability index is on record?
Its protein stability index is 2.69.

For L12C, which protein stability index is on record?
Its protein stability index is 2.17.

Which protein stability index does the source give for L12D here?
Its protein stability index is 3.33.

Which protein stability index does the source give for L12E here?
Its protein stability index is 2.48.

Which protein stability index does the source give for L12F here?
The protein stability index was 2.02.

Which protein stability index does the source give for L12G here?
Its protein stability index is 2.12.

For L12H, which protein stability index is on record?
The protein stability index was 2.72.

For L12I, which protein stability index is on record?
Its protein stability index is 2.53.

Which protein stability index does the source give for L12K here?
Its protein stability index is 2.4.

Which protein stability index does the source give for L12M here?
The protein stability index was 2.44.

For L12N, which protein stability index is on record?
Its protein stability index is 2.64.
